Earlier results in publication PMC6136348, “In the quest for new targets for pathogen eradication: the adenylosuccinate synthetase from the bacterium Helicobacter pylori” (Journal of Enzyme Inhibition and Medicinal Chemistry, 2018).

Biological target: Adenylosuccinate synthetase (Escherichia coli) (UniProt P0A7D4)

Adenylosuccinate synthetase, sequence (P0A7D4 2-432): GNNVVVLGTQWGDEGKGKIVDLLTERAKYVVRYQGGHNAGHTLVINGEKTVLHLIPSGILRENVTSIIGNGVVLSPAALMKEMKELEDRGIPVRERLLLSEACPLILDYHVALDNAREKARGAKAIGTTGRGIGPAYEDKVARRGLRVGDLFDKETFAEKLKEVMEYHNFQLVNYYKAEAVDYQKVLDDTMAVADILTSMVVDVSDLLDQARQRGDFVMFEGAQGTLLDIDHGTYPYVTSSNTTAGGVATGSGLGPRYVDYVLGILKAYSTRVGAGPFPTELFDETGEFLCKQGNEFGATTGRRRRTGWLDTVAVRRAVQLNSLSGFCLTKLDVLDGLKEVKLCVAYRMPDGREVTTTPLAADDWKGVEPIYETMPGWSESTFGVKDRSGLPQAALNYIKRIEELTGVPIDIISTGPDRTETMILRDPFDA

For “Adenylosuccinate synthetase (from UniProt P0A7D4)”, the Kd is given as 10 µM.
